Consider one substance from PMC8216847.

The assay has as its target SARS-HCoV-2 S2 extra-cellular domain (SARS-CoV-2).

As for CV3-25 (antibody), the IC50 of neutralisation of SARS-CoV-2 pseudovirus on HEK293T-hACE2 cells worked out at 0.34 µg/mL.
